The values that follow are results of earlier work, collected in article PMC6105697.

The series deals with NKG2D (Homo sapiens) (UniProt P26718). The series is described as follows: surface plasmon resonance.
UniProt P26718, sequence (P26718 whole entry): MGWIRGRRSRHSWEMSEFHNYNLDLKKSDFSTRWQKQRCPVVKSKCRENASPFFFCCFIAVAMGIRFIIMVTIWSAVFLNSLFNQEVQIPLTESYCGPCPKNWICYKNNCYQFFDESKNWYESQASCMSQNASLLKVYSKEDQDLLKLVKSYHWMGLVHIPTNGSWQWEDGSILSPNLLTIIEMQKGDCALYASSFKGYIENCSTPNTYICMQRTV

As usually defined, the Kd is a measure of binding affinity in units of concentration. As for ULBP0602 (from UniProt Q5VY80), the Kd was 15.5 nM.
